This note sets out measurements from doi:10.1101/2024.12.20.629533.

In the assay the target is VgrS (residues 81-729), Salmonella Typhimurium VgrG (Salmonella enterica serovar Typhimurium). Nature of the assay: crystal structure.

On to “VgrS (residues 81-729), Salmonella Typhimurium VgrG (domain or fragment)”, for which the stoichiometry N worked out at 3.
